{"source": "patent US20070202079A1", "about": "“Therapeutic compositions and methods useful in modulating protein tyrosine phosphatases” (priority 2006, published 2007)", "key": {"[1]": {"test_system": "T1, Synthetic phosphotyrosine peptide Arg-Arg-Leu-Ile-Glu-Asp-Ala-Gle-Tyr-Ala-Ala-Arg-Gly (SEQ ID NO: 3), tyrosine phosphorylated", "T1 sequence": "RRLIEDAEYAARG"}, "SHP-1": {"molecular_target": "T2, SHP-1 (Mus musculus, UniProt P29351)", "T2 construct": "made in house", "T2 sequence (P29351 whole entry, the tested form may be a part)": "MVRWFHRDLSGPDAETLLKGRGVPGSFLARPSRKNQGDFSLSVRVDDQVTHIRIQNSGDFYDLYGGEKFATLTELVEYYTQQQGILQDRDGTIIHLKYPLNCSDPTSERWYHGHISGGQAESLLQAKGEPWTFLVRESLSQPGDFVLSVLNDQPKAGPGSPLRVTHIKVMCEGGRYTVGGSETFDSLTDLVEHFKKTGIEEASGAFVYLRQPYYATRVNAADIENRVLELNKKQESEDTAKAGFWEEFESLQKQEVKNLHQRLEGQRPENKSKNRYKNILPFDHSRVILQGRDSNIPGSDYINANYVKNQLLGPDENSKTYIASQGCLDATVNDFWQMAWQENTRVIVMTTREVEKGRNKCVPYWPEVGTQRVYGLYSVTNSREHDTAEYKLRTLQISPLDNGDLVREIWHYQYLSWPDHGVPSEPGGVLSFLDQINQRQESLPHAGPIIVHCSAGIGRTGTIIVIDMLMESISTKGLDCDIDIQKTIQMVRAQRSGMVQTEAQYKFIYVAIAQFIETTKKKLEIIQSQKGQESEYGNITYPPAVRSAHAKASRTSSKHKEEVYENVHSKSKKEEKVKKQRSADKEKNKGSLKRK", "test": "in vitro PTPase assay, GST/SHP-1", "assay_type": "biochemical", "protocol": "In vitro PTPase activities were measured using the commercial protein tyrosine phosphatase assay kit (Upstate Biotechnology, Inc. (“UBI”)) following established procedure known to one of skill in the art. […] Briefly, 0.01 μg of GST/PTPase fusion proteins was incubated in 50 μl of Tris buffer (10 mM Tris, pH 7.4) containing different concentrations of inhibitors or chemicals (0-1,000 μg/ml) at 22° C. for 10 minutes, followed by addition of 0.2 mM of the phosphotyrosine peptide and incubation at 22° […] 100 μl of Malachite Green solution was added and incubated for 5 minutes, and the absorbance at 660 nm was measured after 5 minutes.\nTo assess the reversibility of inhibition of SHP-1 by PTPase inhibitors, GST/SHP-1 fusion protein bound on glutathione beads were pre-incubated in cold Tris buffer or Tris buffer containing the PTPase inhibitors at 4° C. for 30 minutes. The beads were then either subjected to in vitro PTPase assays or washed 3 times in Tris buffer then subjected to in vitro PTPase assays.\nBriefly, individual PTPases (0.1 μg/reaction) in 50 μL of PTPase buffer (50 mM Tris, pH 7.4) were incubated at 22° C. for 10 minutes or as indicated in the absence or presence of inhibitory compounds. Substrates (0.2 mM phosphotyrosine peptide) were then added and allowed to react at 22° C. for 18 hrs. PTPase activity of individual reactions was measured by adding 100 μL of malachite green solution (UBI) and then quantifying the amounts of free phosphate cleaved by the PTPase from the peptide substrate by spectrometry (OD660 nm). […] Relative PTPase activities were calculated based on the formula: (PTPase activity in the presence of an inhibitory compound/PTPase activity in the absence of the compound)× 100%. To assess the reversibility of PTPase inhibition, GST fusion proteins of the PTPases bound on glutathione beads (Pharmacia) were pre-incubated with cold Tris buffer (50 mM Tris, pH 7.0) or Tris buffer containing the inhibitor at 4° C. for 30 minutes. The beads were then washed three times in cold Tris buffer or not washed prior to subjecting to in vitro PTPase assays."}, "MKP1": {"molecular_target": "T3, MKP1 (Homo sapiens, UniProt P28562)", "T3 construct": "a pGEX construct containing the coding region of MKP1 cDNA derived by RT-PCR; made in house; host or cells: DH5a bacteria (E. coli)", "T3 sequence (P28562 1-367)": "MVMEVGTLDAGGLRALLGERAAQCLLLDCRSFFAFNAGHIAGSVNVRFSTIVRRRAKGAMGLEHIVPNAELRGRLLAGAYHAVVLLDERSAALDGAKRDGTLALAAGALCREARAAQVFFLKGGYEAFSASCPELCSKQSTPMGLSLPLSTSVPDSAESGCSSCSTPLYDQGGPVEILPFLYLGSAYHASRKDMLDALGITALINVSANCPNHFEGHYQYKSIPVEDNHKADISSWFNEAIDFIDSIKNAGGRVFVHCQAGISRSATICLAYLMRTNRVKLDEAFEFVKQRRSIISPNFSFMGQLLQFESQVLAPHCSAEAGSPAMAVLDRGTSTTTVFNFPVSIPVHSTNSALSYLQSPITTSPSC", "test": "in vitro PTPase assay, GST/MKP1", "assay_type": "biochemical", "settings": "levamisole, pentamidine, ketoconazole", "protocol": "In vitro PTPase activities were measured using the commercial protein tyrosine phosphatase assay kit (Upstate Biotechnology, Inc. (“UBI”)) following established procedure known to one of skill in the art. This assay measures the in vitro dephosphorylation of a synthetic phosphotyrosine peptide of the sequence Arg-Arg-Leu-Ile-Glu-Asp-Ala-Gle-T- -yr-Ala-Ala-Arg-Gly, wherein the tyrosine is phosphorylated (SEQ ID NO: 3). Briefly, 0.01 μg of GST/PTPase fusion proteins was incubated in 50 μl of Tris buffer (10 mM Tris, pH 7.4) containing different concentrations of inhibitors or chemicals (0-1,000 μg/ml) at 22° C. for 10 minutes, followed by addition of 0.2 mM of the phosphotyrosine peptide and incubation at 22° C. for 18 hours. 100 μl of Malachite Green solution was added and incubated for 5 minutes, and the absorbance at 660 nm was measured after 5 minutes.\n(§1) In vitro PTPase assays were used to determine the effects of levamisole (Sigma), pentamidine (American Pharmaceutical Partners, Inc.), and ketoconazole (Sigma) on recombinant PTPases, following established procedures (Pathak et al., J. Immunol. 167, 3391 (2001); Pathak et al., Leukemia 16, 2285 (2002), Yi et al., J. Immunol. 169, 5978 (2002)) using a synthetic phosphotyrosine peptide or DiFMUP as the substrate as detailed above in section I.A.2."}, "GSTm8": {"test_system": "GSTm8", "test": "in vitro PTPase assay, GSTm8", "assay_type": "biochemical", "settings": "3-4 μg/ml or 10-100 μg/ml", "description": "as §1"}, "PRL-3": {"molecular_target": "T4, PRL-3 (Homo sapiens, UniProt O75365)", "T4 construct": "cDNAs of human PRL-1, PRL-2 and PRL-3 coding region were derived by RT-PCR; made in house; host or cells: DH5a bacteria (E. coli)", "T4 sequence (O75365 whole entry, the tested form may be a part)": "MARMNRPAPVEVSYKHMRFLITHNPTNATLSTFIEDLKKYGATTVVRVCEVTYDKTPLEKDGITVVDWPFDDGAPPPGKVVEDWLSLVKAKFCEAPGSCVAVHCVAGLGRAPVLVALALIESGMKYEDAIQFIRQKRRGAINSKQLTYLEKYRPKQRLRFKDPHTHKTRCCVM", "test": "in vitro PTPase assay, recombinant PRL-3", "assay_type": "biochemical", "settings": "DiFMUP substrate", "description": "Sodium stibogluconate, suramin, sodium orthovanadate and GST fusion protein of SHP-1 have been described previously (Pathak et al., J. Immunol. 167, 3391 (2001)). Meglumine antimonate was obtained from Aventis. cDNAs of human PRL-1, PRL-2 and PRL-3 coding region were derived by RT-PCR from H9 cells (Safai, et al., Lancet 1, 1438 (1984)) and inserted in frame into the pGEX vector. cDNA of PRL-1R86 was generated by recombinant DNA technique using PRL-1 cDNA as template following established procedures (Jiao, et al., Mol. Cell. Biol. 16, 6985 (1996)). GST fusion proteins of the PRL phosphatases were prepared from DH5a bacteria transformed with the pGEX fusion protein constructs as described previously (Yi, et al., Mol. Cell. Biol. 12, 836 (1992)). cDNAs encoding the PRLs tagged at the N-termini with the Flag epitope (Castrucci, et al., J. Virol. 66, 4647 (1992)) were generated via recombinant DNA technique, sequenced to confirm their identities and cloned into the pBabepuro vector (Yang, et al., Blood 91, 3746 (1998)). Anti-Flag monoclonal antibody (M2, Sigma) was purchased from a commercial source. A synthetic phosphotyrosine peptide (Arg-Arg-Leu-Ile-Glu-Asp-Ala-Gle-Tyr-Al- -a-Ala-Arg-Gly (SEQ ID NO: 3), wherein the tyrosine is phosphorylated; UBI) and DiFMUP (6, 8-difluoro-4-methylumbelliferyl phosphate, Molecular Probes) were purchased as substrates for PTPase assays.\nIn vitro PTPase assays were used to determine the effects of compounds on recombinant PTPases, following established procedures using a synthetic phosphotyrosine peptide or DiFMUP as the substrate (Pathak et al., J. Immunol. 167, 3391 (2001)). Briefly, individual PTPases (0.1 μg/reaction) in 50 μL of PTPase buffer (50 mM Tris, pH 7.4) were incubated at 22° C. for 10 minutes or as indicated in the absence or presence of inhibitory compounds. Substrates (0.2 mM phosphotyrosine peptide) were then added and allowed to react at 22° C. for 18 hrs. PTPase activity of individual reactions was measured by adding 100 μL of malachite green solution (UBI) and then quantifying the amounts of free phosphate cleaved by the PTPase from the peptide substrate by spectrometry (OD660 nm). PTPase assays using DiFMUP as a substrate were conducted following a previously described procedure (Matter, et al., Biochem. Biophys. Res. Comm. 283, 1061 (2001)). Relative PTPase activities were calculated based on the formula: (PTPase activity in the presence of an inhibitory compound/PTPase activity in the absence of the compound)× 100%. To assess the reversibility of PTPase inhibition, GST fusion proteins of the PTPases bound on glutathione beads (Pharmacia) were pre-incubated with cold Tris buffer (50 mM Tris, pH 7.0) or Tris buffer containing the inhibitor at 4° C. for 30 minutes. The beads were then washed three times in cold Tris buffer or not washed prior to subjecting to in vitro PTPase assays."}, "[2]": {"molecular_target": "T5, Synthetic phosphotyrosine peptide Arg-Arg-Leu-Ile-Glu-Asp-Ala-Gle-Tyr-Ala-Ala-Arg-Gly (SEQ ID NO: 3), tyrosine phosphorylated (not fully specified)", "T5 chain": "RRLIEDAEYAARG"}}, "data": [{"molecule": "GST fusion protein of SHP-1", "values": [{"measurement": "PTPase activities against the peptide substrate (660 nm absorbance above background)", "setting": "[1]", "result": "660 nm absorbance approximately 0.6 above background (0.03)"}]}, {"molecule": "GST fusion protein of mitogen-activated protein kinase phosphatase 1 (MKP1)", "values": [{"measurement": "PTPase activities against the peptide substrate (660 nm absorbance above background)", "setting": "[1]", "result": "660 nm absorbance approximately 0.6 above background (0.03)"}]}, {"molecule": "c1ccc([C@H]2CN3CCSC3=N2)cc1", "note": "[levamisole]", "values": [{"measurement": "inhibitory activity against SHP-1", "setting": "SHP-1; 3-4 μg/ml or 10-100 μg/ml", "result": "no obvious inhibitory activity"}, {"measurement": "inhibition of MKP1", "setting": "MKP1", "result": "substantial inhibition"}, {"measurement": "inhibitory activity against GSTm8", "setting": "GSTm8", "result": "no obvious inhibitory activity"}]}, {"molecule": "Cc1ccc(C(=O)Nc2ccc(S(=O)(=O)O)c3cc(S(=O)(=O)O)cc(S(=O)(=O)O)c23)cc1NC(=O)c1cccc(NC(=O)Nc2cccc(C(=O)Nc3cc(C(=O)Nc4ccc(S(=O)(=O)O)c5cc(S(=O)(=O)O)cc(S(=O)(=O)O)c45)ccc3C)c2)c1", "note": "[Suramin]", "values": [{"measurement": "inhibition of SHP-1 compared with sodium stibogluconate", "setting": "SHP-1; comparable conditions", "result": "less effective"}, {"measurement": "inhibition of GST/SHP-1 after washing (reversibility)", "setting": "SHP-1; pre-incubated 30 min at 4 °C, beads washed 3 times", "result": "almost completely removed by the washing process"}, {"measurement": "inhibition of PRL-3 compared with sodium stibogluconate", "setting": "PRL-3", "result": "less effective"}]}, {"molecule": "[Na+].[Na+].[Na+].[O]=[V]([O-])([O-])[O-]", "note": "[sodium orthovanadate]", "values": [{"measurement": "inhibition of PRL-3 compared with sodium stibogluconate", "setting": "PRL-3", "result": "less effective"}]}, {"molecule": "GST fusion protein of SHP-2", "values": [{"measurement": "PTPase activities against the peptide substrate (660 nm absorbance above background)", "setting": "[1]", "result": "660 nm absorbance approximately 0.6 above background (0.03)"}]}, {"molecule": "GST fusion protein of protein tyrosine phosphatase 1B (PTP1B)", "values": [{"measurement": "PTPase activities against the peptide substrate (660 nm absorbance above background)", "setting": "[1]", "result": "660 nm absorbance approximately 0.6 above background (0.03)"}]}, {"molecule": "GST fusion protein of PRL-1R86 (recombinant PRL-1 protein containing R86) (protein) MARMNRPAPVEVTYKNMRFLITHNPTNATLNKFIEELKKYGVTTIVRVCEATYDTTLVEKEGIHVLDWPFDDGAPPSNQIVDDWLRLVKIKFREEPGCCIAVHCVAGLGRAPVLVALALIEGGMKYEDAVQFIRQKRRGAFNSKQLLYLEKYRPKMRLRFKDSNGHRNNCCIQ", "values": [{"measurement": "in vitro PTPase activity", "setting": "[2]", "result": "showed in vitro PTPase activity similar to that of wild type PRL-1"}]}, {"molecule": "GST fusion protein of PRL-1 (recombinant wild type PRL-1) (protein) MARMNRPAPVEVTYKNMRFLITHNPTNATLNKFIEELKKYGVTTIVRVCEATYDTTLVEKEGIHVLDWPFDDGAPPSNQIVDDWLSLVKIKFREEPGCCIAVHCVAGLGRAPVLVALALIEGGMKYEDAVQFIRQKRRGAFNSKQLLYLEKYRPKMRLRFKDSNGHRNNCCIQ", "values": [{"measurement": "in vitro PTPase activity", "setting": "[2]", "result": "showed in vitro PTPase activity similar to that of wild type PRL-1"}]}, {"molecule": "Flag-PRL-1 (human PRL-1 tagged at the N-terminus with the Flag epitope) (protein) MARMNRPAPVEVTYKNMRFLITHNPTNATLNKFIEELKKYGVTTIVRVCEATYDTTLVEKEGIHVLDWPFDDGAPPSNQIVDDWLSLVKIKFREEPGCCIAVHCVAGLGRAPVLVALALIEGGMKYEDAVQFIRQKRRGAFNSKQLLYLEKYRPKMRLRFKDSNGHRNNCCIQ", "values": [{"measurement": "PTPase activity of anti-Flag immunocomplexes", "setting": "[2]", "result": "a markedly higher PTPase activity (about 23 folds) over that of control transfectants"}, {"measurement": "phosphatase activities of anti-Flag immunocomplexes", "setting": "[2]", "result": "showed phosphatase activities well above the background activity of the vector control cells"}]}, {"molecule": "Flag-PRL-1R86 (Flag-tagged PRL-1 R86 mutant) (protein) MARMNRPAPVEVTYKNMRFLITHNPTNATLNKFIEELKKYGVTTIVRVCEATYDTTLVEKEGIHVLDWPFDDGAPPSNQIVDDWLRLVKIKFREEPGCCIAVHCVAGLGRAPVLVALALIEGGMKYEDAVQFIRQKRRGAFNSKQLLYLEKYRPKMRLRFKDSNGHRNNCCIQ", "values": [{"measurement": "phosphatase activities of anti-Flag immunocomplexes", "setting": "[2]", "result": "showed phosphatase activities well above the background activity of the vector control cells"}]}]}
